Molecular target: triple-phosphorylated Schizosaccharomyces pombe Dss1, fluorescein-labelled on the C-terminal cysteine (S. pombe) (UniProt O14140)
Experiment: MST

Kd: 1300 nM
B1: FHA domain of Schizosaccharomyces pombe Dma1 (residues 25-160) (domain or fragment)
chain: DKISIRLTNFVGPNAHSFSFDPLVRYWNRKQNNLPIYIGRYTERYNGGDVSAIVFRSKVVSRRHAQIFYENNTWYIQDMGSSSGTFLNHVRLSPPSKTSKPYPISNNDILQLGADYRGGHEVNYRCVRARVELNNS
